Reference: article doi:10.1101/2023.04.03.535215

Molecular target: Recombinant SARS-CoV-2 spike protein (SARS-CoV-2) (UniProt P0DTC2)
Assay: ELISA

Native human surfactant protein A (from UniProt Q8IWL2 21-248) (natural protein)
percent decrease of binding in 10 mM EDTA: 46%
